What was measured:
[1] = test system: S. uberis, S. aureus, S. agalactiae and S. dysgalactiae; assay: 2 h time killing assay in PBS and UHT-milk, relative in vitro scoring; assay type: cell-based; settings: 0.25 μM
Procedure: Concerning the time killing assay, an overnight bacterial culture was diluted 1:10 for S. uberis, S. agalactiae-& dysgalactiae or 1:100 for S. aureus in PBS or UHT-pasteurized whole cow's milk. A volume of 10 μL thereof was combined with an equal amount of chimeric endolysin in PBS (or only PBS as negative control) in triplicate and incubated in a covered 96-well microtiter plate at 37° C. for 2 h. […] Finally, these fractions were serially diluted 1:10 in PBS. 5 μL of each fraction was spotted on TSA or BHI-agar and incubated overnight at 37° C. The following day, colony forming units (CFU) were counted and converted to CFU/mL to calculate logarithmic reductions in comparison with the negative control. The relative scores were calculated by dividing the observed logarithmic reduction for each endolysin by the maximal reduction observed for that specific condition and strain. Next, this value was divided by the number of conditions and strains tested (i.e., 8=4 bacterial strains×2 conditions (PBS/UHT-milk)). As such, the best performing candidate in each individual assay received a score of 0.125 (=(1/1)/8). […] Turbidity reduction assays were performed by combining 100 μL of overnight grown bacterial cells with an equal volume of purified enzyme at the desired concentration. Bacterial cells were washed with PBS and resuspended in a 1:1 ratio with enzyme to an OD600 of approximately 1.0. Next, the OD600 was measured using a Tecan infinite 200 PRO plate reader (Tecan, Switzerland) every 15 seconds at 37° C., shaking the 96-well plate between each measurement.
Stationary phase S. uberis 0140J or S. aureus N305 and one randomly chosen clinical isolate of S. uberis, S. aureus, S. agalactiae and S. dysgalactiae were challenged with a final concentration of 0.25 μM endolysin in a 2 h time killing assay (TKA) in both phosphate buffered saline (PBS) and ultra-high temperature pasteurized whole cow's milk (UHT-milk).

S. agalactiae = assay: Turbidity reduction assay (TRA), S. agalactiae; assay type: cell-based, Streptococcus agalactiae
Procedure: Concerning the time killing assay, an overnight bacterial culture was diluted 1:10 for S. uberis, S. agalactiae-& dysgalactiae or 1:100 for S. aureus in PBS or UHT-pasteurized whole cow's milk. A volume of 10 μL thereof was combined with an equal amount of chimeric endolysin in PBS (or only PBS as negative control) in triplicate and incubated in a covered 96-well microtiter plate at 37° C. for 2 h. The dose was low (i.e. 0.25 μM), but this was chosen to differentiate between less and better performing variants, consequently allowing a ranking. Finally, these fractions were serially diluted 1:10 in PBS. 5 μL of each fraction was spotted on TSA or BHI-agar and incubated overnight at 37° C. The following day, colony forming units (CFU) were counted and converted to CFU/mL to calculate logarithmic reductions in comparison with the negative control. The relative scores were calculated by dividing the observed logarithmic reduction for each endolysin by the maximal reduction observed for that specific condition and strain. Next, this value was divided by the number of conditions and strains tested (i.e., 8=4 bacterial strains×2 conditions (PBS/UHT-milk)). As such, the best performing candidate in each individual assay received a score of 0.125 (=(1/1)/8). […] Turbidity reduction assays were performed by combining 100 μL of overnight grown bacterial cells with an equal volume of purified enzyme at the desired concentration. Bacterial cells were washed with PBS and resuspended in a 1:1 ratio with enzyme to an OD600 of approximately 1.0. Next, the OD600 was measured using a Tecan infinite 200 PRO plate reader (Tecan, Switzerland) every 15 seconds at 37° C., shaking the 96-well plate between each measurement.
Time killing and turbidity reduction assays were performed as previously described in 1.3.1.

MAC-T cells = assay type: cell-based, bovine; settings: 2.5 μM
Procedure: MAC-T cells were seeded in a 6-well plate at 300.000 cells/well and grown to 100% confluency. Next, cell culture medium was replaced by prewarmed NC5 in DMEM (buffer exchange performed at 4-8° C. by means of a Pierce™ Protein Concentrator PES 10 kDa MWCO) and allowed to incubate during 1 h at 37° C. and 5.0% CO2. DMEM alone served as the negative control. Following incubation, the supernatant was aspirated and cells were washed 5× with prewarmed dPBS. Cells were then harvested, pelleted and washed as previously described, followed by lysis in ice-cold 0.1% triton X-100 (Sigma-Aldrich, USA) in dPBS. The cell lysates were denaturized and subjected to SDS-PAGE before blotting to a nitrocellulose membrane (Novolab, Belgium). The membrane was thereafter incubated during 1 h in dPBSM5 as blocking buffer. Subsequently, the primary antibody being mouse monoclonal IgG anti-HIS5 (Sigma-Aldrich, USA) was added to the blocking buffer at 1:2000 and allowed to incubate under the same conditions for another hour. The nitrocellulose membrane was then washed 3× with dPBST and incubated during 30 min with the secondary antibody being HRP conjugated goat monoclonal anti-mouse IgG (ImTec Diagnostics, Belgium) diluted 1:1000 in dPBST. […]

B1: NC5: chimeric endolysin SEQ ID NO: 17; HIV-1 TAT + PlySs2 CHAP + Ply1081 CW_7 + PlySs9 amidase_3 (protein)
chain: MYGRKKRRQRRRGATTVNEALNNVRAQVGSGVSVGNGECYALASWYERMISPDATVGLGAGVGWVSGAIGDTISAKNIGSSYNWQANGWTVSTSGPFKAGQIVTLGATPGNPYGHVVIVEAVDGDRLTILEQNYGGKRYPVRNYYSAASYRQQVVHYITPPGTVAQSAPNLAGAGIDQLVQETLAGKYGNGEQRKAALGSQYQAVMAVINGKATAPKKTVDQLAQEVIQGKHGNGEDRKKSLGPDYDAVQKRVTEILKGSPSGNIPKTPSDAPKSEVVNSSTEPKTEETGANGKATDTKITKGSGKHLVICGHGQGRTGYDPGAVNAKLGITEAGKVRELSKLMSKYSGQQIDFITEQNVYDYRSITSIGKGYDSITELHFNAFNGSAKGTEVLIQSSLEADKEDMAILSLLSRYFQNRGIKKVDWLYNANQAASRGYTYRLVEIAFIDNEQDMAIFENKKEDIAKGLVSAITGVEVKTIVPSPPSSTVGSSGTPSKSIYLVGDSLRVLPHATHYQTGQKIANWVKGRTYKILQVKNVHQSNSKRAYLLDGIKSWVLEQDVEGTTKGHSKYHHHHHH
[1]
  ranking by cumulative relative in vitro score: overall best performing candidates
S. agalactiae; S. agalactiae 1, 0.3 μM
  lysis speed (ΔOD600/min)/μM: 0.15 (ΔOD600/min)/μM
S. agalactiae; S. agalactiae 1, 1 h, 0.3 μM
  ΔOD600: 0.42
S. agalactiae; S. agalactiae 2, 0.3 μM
  lysis speed (ΔOD600/min)/μM: 0.08 (ΔOD600/min)/μM
S. agalactiae; S. agalactiae 2, 1 h, 0.3 μM
  ΔOD600: 0.39
S. agalactiae; S. agalactiae 3, 0.3 μM
  lysis speed (ΔOD600/min)/μM: 0.12 (ΔOD600/min)/μM
S. agalactiae; S. agalactiae 3, 1 h, 0.3 μM
  ΔOD600: 0.41
S. agalactiae; three clinical S. agalactiae isolates, 0.3 μM
  ΔOD600, reductions up to: up to 0.39±0.02
MAC-T cells
  stability after incubation with MAC-T cells (SDS-PAGE of supernatant): neither disintegrated nor precipitated after incubation with MAC-T cells
